Results published in US20240092924A1 (RIKEN, published 2024).
Where “and” joins values, the source holds several entries; their conditions need not be identical. Equal values may be shown once.

T1: epitope region-containing peptide fragment (AFPPEVIGPLFFFPLLYMIFQLGEG-biotin) (C-terminal biotin)
T1 peptide: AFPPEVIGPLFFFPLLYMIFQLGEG

T2: wild-type human sodium taurocholate cotransporting polypeptide (human NTCP) (human, UniProt Q14973 1-349)
T2 sequence: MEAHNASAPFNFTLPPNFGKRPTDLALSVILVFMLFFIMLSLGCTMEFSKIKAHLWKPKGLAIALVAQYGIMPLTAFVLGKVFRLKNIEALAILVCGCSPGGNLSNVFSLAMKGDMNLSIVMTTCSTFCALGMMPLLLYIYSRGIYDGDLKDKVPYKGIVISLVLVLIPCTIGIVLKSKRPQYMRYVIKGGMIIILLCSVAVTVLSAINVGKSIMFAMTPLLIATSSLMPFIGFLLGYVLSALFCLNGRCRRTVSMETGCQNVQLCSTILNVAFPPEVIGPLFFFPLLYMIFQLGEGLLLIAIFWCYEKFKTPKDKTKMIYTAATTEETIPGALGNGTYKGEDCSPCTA


Legend:
[1] = target: T1, epitope region-containing peptide …; test: SPR (BIAcore 2000, 25 C); antibody captured via anti-mouse IgG on CM5, peptide as analyte; 1:1 Langmuir fit
Description: (§1) In short, a carboxymethylated dextran biosensor chip (CM5, BIAcore Inc.) was activated by N-ethyl-N′-(3-dimethylaminopropyl)-carbodiimide hydrochloride (EDC) and N-hydroxysuccinimide (NHS) in accordance with the provider's instruction. An anti-mouse IgG antibody was diluted with 10 mM sodium acetate (pH5.2) up to 30 μg/ml. The dilution was injected at a flow rate of 5 to 10 μl/minute such that the reaction unit (RU) of the protein bound became 9,000 to 14,000 RU. […] The diluted antibody was injected at a flow rate of 5 to 10 μl/minute such that the reaction unit (RU) of the protein bound became 9,000 to 14,000 RU. After injection of each of the anti IgG antibodies, 1 M ethanolamine was injected in order to block unreactive groups. […] To the chip, a solution of an epitope region-containing peptide fragment diluted with the running buffers at different concentrations was added at 25° C. at a flow rate of 10 μl/minute for 2 minutes.
(§2) Using simple one-to-one Langmuir binding model (BIAcore Evaluation software version 3.1) by fitting sensor grams of antigen-antibody association and dissociation at the same time, association rate (Ka) and dissociation rate (Kd) were calculated. A Kd/Ka ratio was calculated to obtain an equilibrium dissociation constant (KD).

[2] = target: T2, wild-type human sodium taurocholate …; test: cell-based or functional assay
[3] = target: T1, epitope region-containing peptide …; test: SPR (BIAcore 2000, 25 C); antibody captured via anti-human IgG on CM5, peptide as analyte; 1:1 Langmuir fit
Description: as §1, §2

Binder	Kd [1]	koff [1]	kon [1]	IC50, inhibition of HBV/NL pseudo-virus infection of HepG2-human NTCP cells [2]	Kd [3]	koff [3]	kon [3]	IC50, inhibition of infection with pseudo-HBV (NanoLuc) [2]	IC50, inhibition of live HBV infection of HepG2/NTCP-myc (HBs antigen level) [2]
Recombinant N6HB426 mouse IgG2a antibody (antibody, this is left out as a signal peptide; also called Recombinant mouse IgG2a antibody; N6HB426-20-IgG2a antibody) heavy: QVQLQQSGAELVKPGASVKLSCKASDFTFTEYTIHWIKQMSGQGLEWIGWFYPGSGDIKYSEKFKDKATLTADKSSSTVYMELNRLTSEDSAVYFCARHMRDFRGFYYGRFYFDYWGQGTTLTVSSAKTTAPSVYPLAPVCGGTTGSSVTLGCLVKGYFPEPVTLTWNSGSLSSGVHTFPALLQSGLYTLSSSVTVTSNTWPSQTITCNVAHPASSTKVDKKIEPRGPTIKPCPPCKCPAPNLLGGPSVFIFPPKIKDVLMISLSPIVTCVVVDVSEDDPDVQISWFVNNVEVHTAQTQTHREDYNSTLRVVSALPIQHQDWMSGKEFKCKVNNKDLPAPIERTISKPKGSVRAPQVYVLPPPEEEMTKKQVTLTCMVTDFMPEDIYVEWTNNGKTELNYKNTEPVLDSDGSYFMYSKLRVEKKNWVERNSYSCSVVHEGLHNHHTTKSFSRTPGK light: EIVLTQSPAIMSASPGEKVTITCRASSSVSSSYLHWYQQKSGVSPKLWIYSTSNLASGVPARFSGSGSGTSYSLTINSVEAEDAATYYCQQYSGYRWTFGGGTTLEIKRADAAPTVSIFPPSSEQLTSGGASVVCFLNNFYPKDINVKWKIDGSERQNGVLNSWTDQDSKDSTYSMSSTLTLTKDEYERHNSYTCEATHKTSTSPIVKSFNRNEC	0.313 nM	2.39e-07 s⁻¹	762 M⁻¹ s⁻¹						
Recombinant N6HB426 human chimeric IgG4 antibody (antibody, also called Recombinant N6HB426 human chimera IgG4 antibody; human chimeric antibody) heavy: not shown light: EIVLTQSPAIMSASPGEKVTITCRASSSVSSSYLHWYQQKSGVSPKLWIYSTSNLASGVPARFSGSGSGTSYSLTINSVEAEDAATYYCQQYSGYRWTFGGGTTLEIKRTVAAPSVFIFPPSDEQLKSGTASVVCLLNNFYPREAKVQWKVDNALQSGNSQESVTEQDSKDSTYSLSSTLTLSKADYEKHKVYACEVTHQGLSSPVTKSFNRGEC				1.7 µg/mL	0.129 nM	1.73e-07 s⁻¹	1340 M⁻¹ s⁻¹		
N6HB426-20 antibody (antibody produced by hybridoma) (antibody, V domains shown, Mouse IgG purified from the hybridoma supernatant on Protein G; also called N6HB426-20 monoclonal antibody; N6HB426 antibody) VH: QVQLQQSGAELVKPGASVKLSCKASDFTFTEYTIHWIKQMSGQGLEWIGWFYPGSGDIKYSEKFKDKATLTADKSSSTVYMELNRLTSEDSAVYFCARHMRDFRGFYYGRFYFDYWGQGTTLTVSS VL: EIVLTQSPAIMSASPGEKVTITCRASSSVSSSYLHWYQQKSGVSPKLWIYSTSNLASGVPARFSGSGSGTSYSLTINSVEAEDAATYYCQQYSGYRWTFGGGTTLEIKRA	0.0388 nM	3.19e-08 s⁻¹	821 M⁻¹ s⁻¹	1.7 µg/mL				0.27 µg/mL and 1.8 nM	20 to 30 nM
